Results taken from article PMC7896056.

Assays:
[1] = molecular target: SIRT1 (183–510+GS+641–665) (human) (UniProt Q96EB6); experiment: ITC; Ac-p53 peptide (500 μM) titrated into 10 μM SIRT1 (183–510+GS+641–665), no activator; 25 °C; 20 mM HEPES pH 7.4, 150 mM NaCl, 0.5% ethanol; one-site model
[2] = molecular target: SIRT1 (183–510+GS+641–665) (human) (UniProt Q96EB6); experiment: ITC; Ac-p53 peptide (500 μM) titrated into 10 μM SIRT1 (183–510+GS+641–665) in the presence of 0.2 mM resveratrol; 25 °C; 20 mM HEPES pH 7.4, 150 mM NaCl, 0.5% ethanol; one-site model
[3] = molecular target: SIRT1 (183–510+GS+641–665) (human) (UniProt Q96EB6); experiment: ITC; Ac-p53 peptide (500 μM) titrated into 10 μM SIRT1 (183–510+GS+641–665) in the presence of 0.2 mM KPMF-8; 25 °C; 20 mM HEPES pH 7.4, 150 mM NaCl, 0.5% ethanol; one-site model

UniProt Q96EB6, sequence (Q96EB6 other isoform, or with tags, fused parts or gaps): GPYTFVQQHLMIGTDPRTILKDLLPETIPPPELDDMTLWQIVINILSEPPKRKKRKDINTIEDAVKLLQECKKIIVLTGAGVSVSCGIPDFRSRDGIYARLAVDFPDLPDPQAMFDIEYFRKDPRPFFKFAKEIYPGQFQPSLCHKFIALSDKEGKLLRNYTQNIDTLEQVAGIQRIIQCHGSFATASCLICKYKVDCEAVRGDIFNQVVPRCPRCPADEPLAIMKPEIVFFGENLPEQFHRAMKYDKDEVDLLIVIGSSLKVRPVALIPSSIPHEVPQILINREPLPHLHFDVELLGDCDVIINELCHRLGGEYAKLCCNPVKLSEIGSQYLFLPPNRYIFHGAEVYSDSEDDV

Kd [1]: 55 µM
Kd [2]: 38.8 µM
Kd [3]: 6.67 µM
Substance: native Ac-p53 peptide
